Test system: MS2 coat protein
Test: apparent KD of MS2 coat protein; designed switch direction (-1 OFF switch, 1 ON switch): 1; higher = weaker reporter binding
How it was run: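 Designed RNA switches with common flanks were made on Illumina chips by stalled E. coli RNA polymerase. Titration with SNAP-549-labelled MS2 coat protein doubled from 0.7 or 1.5 nM up to 3 µM. Apparent KD is each design's median over clusters after curve-fitting normalised fluorescence.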

[1] = Eterna round: R95, input ligand: FMN 200 uM
[2] = Eterna round: R95, input ligand: microRNA oligo, concentration not stated
[3] = Eterna round: R95, input ligand: none
[4] = input ligand: microRNA oligo, concentration not stated

## AGUCCAGCCUGAGCUGGACAAAGGCAUGUACAUGAGGAUCACCCAUGUUCAUGUACAAGCUUUUUGCUCGUCUUAAA [Zipper 52 - 1] (puzzle: Sensor for hsa-mir-208a)
[1]
  apparent KD of MS2 coat protein: 140 nM
[2]
  apparent KD of MS2 coat protein: 11.4 nM
[3]
  apparent KD of MS2 coat protein: 181 nM

## GUGGCCCAGGCACAGGAUAUGUUUCUCGUAACAUGAGGAUCACCCAUGUGCCUAUGAGAUUGUUUGCAGAAGGGUGCACGCCACG [JL Atiinbe mod 03] (puzzle: Same State 2)
[1]
  apparent KD of MS2 coat protein: 21 nM
[2]
  apparent KD of MS2 coat protein: 348 nM
[3]
  apparent KD of MS2 coat protein: 541 nM

## AGCAAAGCGACAGGAUAUGGUAAGGAUCUCUUACCAGAAGGGUCAAGUGCAUGACAUGAGGAUCACCCAUGUAGGUUGUUUACC [Eternabot solution 44] (Eterna round: R96, puzzle: Same State NG 1)
Input ligand: FMN 200 uM
  apparent KD of MS2 coat protein: 18.2 nM
[4]
  apparent KD of MS2 coat protein: 18.5 nM
Input ligand: none
  apparent KD of MS2 coat protein: 26.5 nM

## CUUAACAGAGGAGGAUAUGCAGAGGAUCACCCUGUAGAAGGCCACAGAGGAGGAUAUGCAGAGGAUCACCCUGUAGAAGGCCAC [pwkr ssNG DX.8] (Eterna round: R96, puzzle: Same State NG 1)
Input ligand: FMN 200 uM
  apparent KD of MS2 coat protein: 622 nM
[4]
  apparent KD of MS2 coat protein: 143 nM
Input ligand: none
  apparent KD of MS2 coat protein: 280 nM

## AUACAUGAGGAUCACCCAUGUAAUUAAUUAACUAGUAAGAUCUAGGAUAUCAGCUCGAAUAGAGCUGAGAAGGAGAUCACAUGU [SSNG3/21-A1] (Eterna round: R96, puzzle: Same State NG 3)
[4]
  apparent KD of MS2 coat protein: 31.2 nM

## GCCGCGUUUCGCGCCUACAUGAGGAUCACCCAUGUUUGUAGGCAGGAUAUCGUUUGCUUUGCAAUCGAGAAGGGCUGUUGUGGC [salish99_SSNG3_R04_014] (Eterna round: R96, puzzle: Same State NG 3)
Input ligand: FMN 200 uM
  apparent KD of MS2 coat protein: 33 nM
[4]
  apparent KD of MS2 coat protein: 44.6 nM
Input ligand: none
  apparent KD of MS2 coat protein: 56.6 nM

## GUAGAAUAACUAGAGGAUAUCCGAGUGGUAACAUGAGGAUCACCCAUGUGAUGAAAGGAACAUGAGGAGAAGGCUAGAAGUAAUG [Mat - Same State 2 - Mod of JL - D81] (puzzle: Same State 2)
[1]
  apparent KD of MS2 coat protein: 17.5 nM
[2]
  apparent KD of MS2 coat protein: 61.1 nM
[3]
  apparent KD of MS2 coat protein: 48.1 nM

## AUUUAACAAGCUUUUUGCUCGUCUUAUAAACAUGAGGAUCACCCAUGUAAUAGCGUGAGAGUAAUUUAUUAAAUAAU [JMF 92] (puzzle: Sensor for hsa-mir-208a)
[1]
  apparent KD of MS2 coat protein: 15.6 nM
[2]
  apparent KD of MS2 coat protein: 41 nM
[3]
  apparent KD of MS2 coat protein: 15.6 nM

## GCUAGAAUUAACGCCUACAUGAGGAUCACCCAUGUAUGUAGGCAGGAUAUCGUUUGCAAAGCAAACGAGAAGGGCCUUACUAGC [Mat - Same State NG 3 - JL Mod - D31] (Eterna round: R96, puzzle: Same State NG 3)
Input ligand: FMN 200 uM
  apparent KD of MS2 coat protein: 27.3 nM
[4]
  apparent KD of MS2 coat protein: 31 nM
Input ligand: none
  apparent KD of MS2 coat protein: 46.5 nM

## ACAAGCUUUUUUGUAGUGAAAGGUGGGAUACAUGAGGAUCACCCAUGUAUUGUUGUUAAUAUUUGUCCUCGUCUUAU [JR_SHM208A_Sub085] (puzzle: Sensor for hsa-mir-208a)
[1]
  apparent KD of MS2 coat protein: 31.8 nM
[2]
  apparent KD of MS2 coat protein: 13.9 nM
[3]
  apparent KD of MS2 coat protein: 36.3 nM

## GGCGAAGGAGAAGGAUAUAUCUUGGACAUAUAGAUGCACAUGAGGAUCACCCAUGUCAUCAUGGGAUAGAAGGUCUGCUUCACC [Eternabot solution 33] (Eterna round: R96, puzzle: Same State NG 2)
Input ligand: FMN 200 uM
  apparent KD of MS2 coat protein: 13.2 nM
[4]
  apparent KD of MS2 coat protein: 10.3 nM
Input ligand: none
  apparent KD of MS2 coat protein: 14.2 nM

## UACAAUCUAUCUGAGGAUAUCAUGUAUUAAACAUGAGGAUCACCCAUGUGCAGGAAAACUGCAUAUGAGAAGGCAGAUAGAUUGU [salish99_ss2_r3_064] (puzzle: Same State 2)
[1]
  apparent KD of MS2 coat protein: 428 nM
[2]
  apparent KD of MS2 coat protein: 41.9 nM
[3]
  apparent KD of MS2 coat protein: 168 nM

## AGUCCAGCCUGAGCUGGACAAAAGCAUGUACAUGAGGAUCACCCAUGUUCAUGUACAAGCUUUUUGCUCGUCUUGAA [salish99_208a_r3_095x] (puzzle: Sensor for hsa-mir-208a)
[1]
  apparent KD of MS2 coat protein: 710 nM
[2]
  apparent KD of MS2 coat protein: 13.5 nM
[3]
  apparent KD of MS2 coat protein: 817 nM

## GAGUGGAGGAAAGGAUAUACAAUGAUAAUCACAGUAGAAGGUUCUAACAUGAGGAUCACCCAUGUAGGACUAUACCAGAGAGGG [Parity 46 - Jieux - Same State NG 1] (Eterna round: R96, puzzle: Same State NG 1)
[4]
  apparent KD of MS2 coat protein: 11.4 nM

## GAGUGGUAGGGAGGAUAUGCAUUGUUAUUAAAUGCAGAAGGUUUUAACAUGAGGAUCACCCAUGUAGGACUAUUCCUGUGUUUC [Parity 67 - Jieux - Same State NG 1] (Eterna round: R96, puzzle: Same State NG 1)
Input ligand: FMN 200 uM
  apparent KD of MS2 coat protein: 12.4 nM
[4]
  apparent KD of MS2 coat protein: 12.7 nM
Input ligand: none
  apparent KD of MS2 coat protein: 16.9 nM

## UACAAUCUAUCUGAGGAUAUCAUGAUUCUAACAUGAGGAUCACCCAUGUGCAGGAAAACUGCAUAUGAGAAGGCAGAUAGAUUGU [salish99_ss2_r3_072] (puzzle: Same State 2)
[1]
  apparent KD of MS2 coat protein: 67.7 nM
[2]
  apparent KD of MS2 coat protein: 33.3 nM
[3]
  apparent KD of MS2 coat protein: 148 nM

## AGUCCAGCCAGAGCUGGACAAAAGCAUGUACAUGAGGAUCACCCAUGUUCAUGUACAAGCUUUUUGCAAGUCAAAAG [Mat - hsa-mir-208a - Mod of JL - 74] (puzzle: Sensor for hsa-mir-208a)
[1]
  apparent KD of MS2 coat protein: 503 nM
[2]
  apparent KD of MS2 coat protein: 25.9 nM
[3]
  apparent KD of MS2 coat protein: 780 nM

## AAACAUGAGCGAGGAUAUGCGGACGAUUACGCUGUAGAAGGCGCAUGUAAAACAACAUGAGGAUCACCCAUGUCAUGUACAUGA (Eterna round: R96, puzzle: Same State NG 1)
Input ligand: FMN 200 uM
  apparent KD of MS2 coat protein: 81.3 nM
[4]
  apparent KD of MS2 coat protein: 50.4 nM
Input ligand: none
  apparent KD of MS2 coat protein: 83.6 nM

## UUGAAGAAUUAAGGAUAUUGAAUACAUAUGUUUAACAUGAGGAUCACCCAUGUGGGUUGCGGUAUCGAGAAGGUAAAUAAAUAG [Mat - Same State NG 2 - JL mod - D3] (Eterna round: R96, puzzle: Same State NG 2)
Input ligand: FMN 200 uM
  apparent KD of MS2 coat protein: 169 nM
[4]
  apparent KD of MS2 coat protein: 110 nM
Input ligand: none
  apparent KD of MS2 coat protein: 159 nM

## AUUGCUUUCGCAGGAUAUGAUGCGAAAAUUGCGUCAGAAGGGUGGAGUCUCUCAUUGCAAGAGGACAUGAGGAUCACCCAUGUC [SameState NG1 #86] (Eterna round: R96, puzzle: Same State NG 1)
Input ligand: FMN 200 uM
  apparent KD of MS2 coat protein: 177 nM
[4]
  apparent KD of MS2 coat protein: 245 nM
Input ligand: none
  apparent KD of MS2 coat protein: 322 nM

## GAAAAACAUGAGGAUCACCCAUGUGAGAAUAUGGGAGGAUAUACGAGGACGAGAGUCAAGGUAGAAGGCCUAAAAG [Garnet 75] (Eterna round: R96, puzzle: Same State 1)
Input ligand: FMN 200 uM
  apparent KD of MS2 coat protein: 45.3 nM
[4]
  apparent KD of MS2 coat protein: 255 nM
Input ligand: none
  apparent KD of MS2 coat protein: 314 nM

## GGUCCAGCCUGAGCUGGACAAAAGCAUGUACAUGAGGAUCACCCAUGUUCAUGUACAAGCUUUUUGCUCGUCUUAGA [salish99_208a_r3_068] (puzzle: Sensor for hsa-mir-208a)
[1]
  apparent KD of MS2 coat protein: 629 nM
[2]
  apparent KD of MS2 coat protein: 15.5 nM
[3]
  apparent KD of MS2 coat protein: 747 nM

## GGUCCAUCAUGAGGAUAUGGCACCUUAUUGGUGCCAGAAGGCAUGUAAAUUAUAAUAAAUACAUGAGGAUCACCCAUGUGGACC [Eli NG1ss - 98] (Eterna round: R96, puzzle: Same State NG 1)
Input ligand: FMN 200 uM
  apparent KD of MS2 coat protein: 1230 nM
[4]
  apparent KD of MS2 coat protein: 80.2 nM
Input ligand: none
  apparent KD of MS2 coat protein: 407 nM

## GGCUAUCGCGUACGAUAGCUGAAGCAUGUACAUGAGGAUCACCCAUGUCAUGUACAAGCUUUUUGCUCGUCUUAUUG [JL-shm-2.32 JL mod] (puzzle: Sensor for hsa-mir-208a)
[1]
  apparent KD of MS2 coat protein: 243 nM
[2]
  apparent KD of MS2 coat protein: 13.9 nM
[3]
  apparent KD of MS2 coat protein: 348 nM

## UGGCUCAGACGAGGAUAUACGUGGUCACAUGAGGAUCACCCAUGUCUCGAGCUUCGGCUCGAGGCGUAGAAGGUGUCUGAGCCA [SSNG2/6-C2] (Eterna round: R96, puzzle: Same State NG 2)
Input ligand: FMN 200 uM
  apparent KD of MS2 coat protein: 192 nM
[4]
  apparent KD of MS2 coat protein: 609 nM
Input ligand: none
  apparent KD of MS2 coat protein: 575 nM

## AGCUAUCGCGUACGAUAGCUGAAGCAUGUACAUGAGGAUCACCCAUGUCAUGUACAGGCUUUUUGCUCGUCUUAUUG [JL-shm-2.27 JL mod] (puzzle: Sensor for hsa-mir-208a)
[1]
  apparent KD of MS2 coat protein: 770 nM
[2]
  apparent KD of MS2 coat protein: 16.4 nM
[3]
  apparent KD of MS2 coat protein: 625 nM

## AAACACGGCAAAACGCCGUGACAUGAGGAUCACCCAUGUACACAGGAUAUCAUGGCAAAACACCAUGAGAAGGGUGAUCAAGAC [Zaleala] (Eterna round: R96, puzzle: Same State NG 3)
Input ligand: FMN 200 uM
  apparent KD of MS2 coat protein: 30.7 nM
[4]
  apparent KD of MS2 coat protein: 26.1 nM
Input ligand: none
  apparent KD of MS2 coat protein: 34.9 nM

## GAGAGAUGGCGAGGAUAUUCGGUGAUAAUGAUAGAAGAAGGCGCUGACAUGAGGAUCACCCAUGUGGGAAUAAUCCAGAGAGAG [Parity 18 - Jieux - Same State NG 1] (Eterna round: R96, puzzle: Same State NG 1)
Input ligand: FMN 200 uM
  apparent KD of MS2 coat protein: 283 nM
[4]
  apparent KD of MS2 coat protein: 73.8 nM
Input ligand: none
  apparent KD of MS2 coat protein: 226 nM

## UGGUACAUGGGAGGAUAUCUCAUGGAGACAUGAGGAUCACCCAUGUAGUUGGGCCGGAAACGGUGAGAGAAGGCCCAUGUACCU [JL SSNG1 3.71] (Eterna round: R96, puzzle: Same State NG 2)
Input ligand: FMN 200 uM
  apparent KD of MS2 coat protein: 377 nM
[4]
  apparent KD of MS2 coat protein: 338 nM
Input ligand: none
  apparent KD of MS2 coat protein: 473 nM

## GCUACCAUUGAAGCCUACAUGAGGAUCACCCAUGUAUGUAGGCAGGAUAUCGAUUGCUUUGCGAUCGAGAAGGGCUUAGGUAGC [JL SSNG3 1.30] (Eterna round: R96, puzzle: Same State NG 3)
Input ligand: FMN 200 uM
  apparent KD of MS2 coat protein: 21.6 nM
[4]
  apparent KD of MS2 coat protein: 47.5 nM
Input ligand: none
  apparent KD of MS2 coat protein: 60.8 nM

## AUAAGUUUGAUGCUCGUCUCUCCGUACAAACAUGAGGAUCACCCAUGUGGUCGGGUAGUAGCCCGGCCAGUAUGGCC [Ribiesreri] (puzzle: Sensor for hsa-mir-208a)
[1]
  apparent KD of MS2 coat protein: 40.3 nM
[2]
  apparent KD of MS2 coat protein: 20.3 nM
[3]
  apparent KD of MS2 coat protein: 46 nM

— the supplement of paper PMC9170038
